The target of test [1] is T1, human ALPPL2 (recombinant protein) (human, UniProt P10696 20-503, limits assumed).
T1 construct: biotinylated where captured on streptavidin
Kind of test: screen of rabbit B-cell clones by ELISA and FACS. An excerpt:
(§1) Specific clones were screened and identified by ELISA and high throughput flow cytometry (FIG. 3). Rabbit kidney cells were transfected with either truncated (for ELISA screen) or full-length (for FACS screen) ALPI and ALPPL2.

Test [2] addresses T2, ALPI (screening and SPR/ELISA protein) (UniProt P09923 20-503, limits assumed).
T2 sequence (looked up): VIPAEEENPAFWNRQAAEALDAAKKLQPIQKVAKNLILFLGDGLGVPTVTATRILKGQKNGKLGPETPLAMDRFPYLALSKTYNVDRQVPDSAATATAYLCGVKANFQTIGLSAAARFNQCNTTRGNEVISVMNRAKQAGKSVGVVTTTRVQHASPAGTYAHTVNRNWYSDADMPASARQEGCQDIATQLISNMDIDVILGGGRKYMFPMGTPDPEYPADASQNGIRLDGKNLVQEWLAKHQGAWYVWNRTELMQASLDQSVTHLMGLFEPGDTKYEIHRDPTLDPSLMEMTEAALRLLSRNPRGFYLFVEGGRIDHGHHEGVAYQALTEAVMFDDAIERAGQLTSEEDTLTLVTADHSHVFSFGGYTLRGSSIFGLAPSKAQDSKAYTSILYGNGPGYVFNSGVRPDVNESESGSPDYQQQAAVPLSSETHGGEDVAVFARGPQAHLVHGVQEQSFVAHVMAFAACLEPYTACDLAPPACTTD
Kind of test: screen of rabbit B-cell clones by ELISA and FACS.
Excerpt: as §1

Test [3] addresses T3, human ALPPL2 (recombinant protein) (human, UniProt P10696 20-503).
T3 chain: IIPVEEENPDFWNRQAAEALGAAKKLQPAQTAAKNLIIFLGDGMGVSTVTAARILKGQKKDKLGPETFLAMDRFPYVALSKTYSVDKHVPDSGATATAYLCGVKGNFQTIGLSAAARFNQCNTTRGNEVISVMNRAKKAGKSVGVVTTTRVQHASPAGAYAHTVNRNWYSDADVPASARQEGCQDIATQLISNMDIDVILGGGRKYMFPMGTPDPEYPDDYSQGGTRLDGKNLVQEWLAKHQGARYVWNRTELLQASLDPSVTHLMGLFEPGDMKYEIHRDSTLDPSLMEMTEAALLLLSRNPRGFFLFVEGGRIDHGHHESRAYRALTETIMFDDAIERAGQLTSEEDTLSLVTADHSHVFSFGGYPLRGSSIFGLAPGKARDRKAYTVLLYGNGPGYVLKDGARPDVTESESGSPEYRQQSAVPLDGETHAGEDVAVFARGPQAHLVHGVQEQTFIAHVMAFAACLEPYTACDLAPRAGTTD
The experiment in a line: BLI; single concentration.

Results on 14 molecules are retold here after US20230080224A1 (AGENCY FOR SCIENCE TECHNOLOGY AND RESEARCH, published 2023).

Residue numbers refer to the chain shown, from its start.

B1: AB2C129 (antibody, V domains shown)
VH: QSLEESGGDLVKPGASLTLTCTASGFSFSSSYWICWVRQAPGKGLEWIACIYAGSSGDTYYASWAKGRFTISKTSSTTVTLQTTSLTAADTATYFCARAEYIDGYADYTYTTLYYFDLWGPGTPVTVSS
VL: DVVMTQTPASVSEPVGGTVTINCQASESINSWLAWYQQKPGQPPKLLIYSASTLASGVPSRFKGSGSGIEFTLTISDLECADAATYFCQSYYSFSRFAFGGGTEVVVK
notes: Rabbit antibody cloned from a single B cell
Take B1: the results for the binding result in test [1] and in test [2] were “binds” and “no binding”, respectively. Also, the Kd in test [3] was found to be 0.001 nM.

B2: AB2C136 (antibody, V domains shown)
VH: QEQLEESGGDLVKPGASLTLTCTASGFSFNSNYYMCWVRQAPGKGLEWIACIYTGIVVPTYYASWAKGRFTISKTSSTTVTLQMTSLTAADTATYFCARDPYVGSSYIYNLWGPGTLVTVSS
VL: LVMTQTPSPVSAAVGSTVTISCQSSQSVYNNNNLAWYQQKPGQPPKLLIYSASSLASGVPSRFKGSGSGTQFTLTISGVECDDAATYYCAGYKTYSNNENAFGGGTEVVVK
notes: as for B1
As for B2, the binding result in test [1] is reported as “binds”; in test [2], “no binding”. Further, in test [3], the Kd amounted to 0.1 nM.

B3: AB1C29 (antibody, V domains shown)
VH: QEHLEESGGGLVKPEGSLTLTCTASGFSFSSSYYMCWVRQAPGKGLEWIACIYPDDGNTYYASWAKGRFTISKTSSTTVTLQMTSLTAADTATYFCARALAYYAYVDGGHSYAINDFDLWGPGTLVTVSS
VL: QVLTQTPSSVSAAVGGTVTINCQSSQSVFSNDYFSWYQQKPGQPPKLLIYDASRLASGVPSRFKGSGSGTQFTLTISGVQCDDAATYYCQGTYYSSAWYNAFGGGTEVVVK
notes: as for B1
Consider B3, for which the binding result is “binds” in test [1] and “no binding” in test [2]. Besides, in test [3], the Kd worked out at 0.2 nM.

B4: AB2C102 (antibody, V domains shown)
VH: QQQLEESGGDLVQPGASLTLTCTASGFSFNSNYWMCWGRQAPGKGLEWIGCILFGNTDTYYANWAKGRFTISKTSSTTVTLQMTSLTAADTATYFCARSVSGVGSAWNLWGPGTLVTVSS
VL: IVMTQTPSSKSVPVGDTVTINCQASESVYNNNHLAWYQQKPGQSPKLLIYLASILDSGVPSRFKGSGSGTQFTLTISDVVCDDAATYYCAGYKGITIDGSAFGGGTELVVK
notes: as for B1
On to B4, for which the binding result in test [1] was “binds”; in test [2] it was “no binding”. Also, the Kd in test [3] came out at 0.5 nM.

B5: AB2C131 (antibody, V domains shown)
VH: QSLEESGGGLVQPEGSLTLTCTASGFSFSSSYYMCWVRQAPGKGLEWIACIYAGSTFSTYYASWAKGRFTISKTSSTTVTLQMTSLTAADTATYFCARSDSYYTYGYAGYAYAIFNLWGPGTLVTVSS
VL: LVMTQTPSSVSAAVGGTVTINCQASESIYSNLAWYQQKPGQPPKLLIYLASTLASGVPSRFKGSGSGTEFTLTISDLECADAATYYCQSAYYSSSADIAFGGGTEVVVK
notes: as for B1
For the molecule B5, the binding result in test [1] is reported as “binds”; in test [2], “no binding”. Besides, the Kd in test [3] turned out to be 8 nM.

B6: AB1C39 (antibody, V domains shown)
VH: QSLEESGGDLVKPGASLTLTCTASGFSFSSSYYMCWVRQAPGKGLEWIACIYAGSSGGTYYASWAKGRFTISKTSSTTVTLQMTSLTAADTATYFCARAFSYYYSDGYTGYAYGLWGPGTLVTVSS
VL: DIVMTQTPASVEAAVGGTVTIKCQASQSISSYLAWYQQKPGQPPKLLIYRASTLASGVPSRFKGSGSGTQFTLTISDLECADAATYYCQGAYYSSSSSYGFGGGTEVVVK
notes: as for B1
B6: the binding result in test [1] is listed as “binds”; in test [2], “no binding”. Besides, in test [3], the Kd is 2 nM.

B7: AB2C124 (antibody, V domains shown)
VH: QEQLVESGGGLVQPEGSLTLTCTASGFSFSSSYFMCWVRQAPGKGLEWIACIYTGDGNNYYASWAKGRFTISKTSSTTVTLQMTSLTAADTATYFCSRGGSYYAYGYAGYDYYPDAFDYWGPGTLVTVSS
VL: B6 VL with A13V, A34S, G90S, A91Y, S97G
notes: as for B1
For the molecule B7, the results for the binding result in test [1] and in test [2] were “binds” and “no binding”, respectively. For the same molecule, the Kd in test [3] worked out at 1.6 nM.

B8: AB2C133 (antibody, V domains shown)
VH: QSLEESGGDLVKPGASLTLTCTASGLDFSSSYWICWVRQAPGKGLEWIGCIKTATETTVYASWAKGRFTISKTSSTTVTLQMTSLTAADTATYLCAKTYADNGGYINLWGPGTLVTVSS
VL: LVMTQTPSSVSAAVGGTVTINCQASQNIYNNLAWYQQKPGQRPKLLIYGASNLESGVPSRFKGSGSGTEYTLTISDLECDDAATYYCQSADLTSSINVFGGGTEVVVK
notes: as for B1
Regarding B8, the binding result was “binds” in test [1] and “no binding” in test [2]. Also, the Kd in test [3] was 1 nM.

B9: AB1C12 (antibody, V domains shown)
VH: QSLEESGGDLVKPGASLTLTCTASGFSFSSSYWISWVRQAPGKGLEWIACIAIGSSGTTYYASWAKGRFTISKTSSTTVTLQMTSLTAADTATYFCARSGDGYTYVELWGPGTLVTVSS
VL: DVVMTQTPASVSEPVGGTVTIKCQASQSISSYLAWYQQKPGQPPKLLIYRASTLASGVPSRFKGSGSGTQFTLTISDLECADAATYYCQNYYDIDDSDNTFGGGTEVVVK
notes: as for B1
Take B9: the binding result in test [1] is “binds”; in test [2] it was “no binding”. The Kd in test [3] was determined as 0.8 nM.

B10: AB2C127 (antibody, V domains shown)
VH: QSLEESGGDLVKPGASLTLTCTASGFSFNSYYMCWVRQAPGKGLEWIACISGGSSDNTYYASWAKGRFTTSKTSSTTVTLQMTSLTAADTATYFCARDIPRSGYFGCDLWGPGTLVTVSS
VL: VVMTQTPASVSEPVGGTVTIKCQASQNIYSNLAWYQQKPGQRPKLLIYGASNLESGVPSRFKGSGSGTEYTLTISNLECADAATYYCQSTVYNSNYANTFGGGTEVVVK
notes: as for B1
Turning to B10, the binding result in test [1] was “binds”; in test [2], “no binding”. Also, in test [3], the Kd turned out to be 1.7 nM.

B11: AB1C19 (antibody, V domains shown)
VH: QSLEESGGDLVQPEGSLTLTCKASGFDFSTNIMCWVRQAPGKGLEWIACIYAGDGSTYYASWVNGRFTISKTSSTTVTLQMTSLTAADTATYFCARASTYWNYGYAGYGYYPGYFNLWGPGTLVTVSS
VL: DIVMTQTPASVEAAVGGTVTIKCQASQSIISALAWYQQKPGQPPKLLIYAASTLASGVPSRFKGSGSGTQFTLTISDLECADAATYYCQTYAYSTKSNYGSVFGGGTEVVVK
notes: as for B1
As to B11, the binding result in test [1] was “binds”; in test [2], “no binding”. Further, the Kd in test [3] is 1.69 nM.

B12: AB1C10 (antibody, V domains shown)
VH: QSLEESGGDLVKPGASLTLTCTASGFDFSSNGMCWVRQAPGKGLEWIACIYVDSSDNTNYASWVNGRFTISRTSSTTVTLQMTSLTAADTATYFCARGYGYVGSAMDLWGQGTLVTVSS
VL: DIVMTQTPASVEAAVGGTVTIKCQASQSINNELSWYQQKPGQRPKLLIYGASTLESGVPSRFSGSGSGTEFTLTISDLECADAATYYCQSAYYSSSSSYANTFGGGTEVVVK
notes: as for B1
For B12, the binding result in test [1] was “binds”; in test [2] it was “no binding”. Further, the Kd in test [3] was found to be 0.15 nM.

B13: AB1C31 (antibody, V domains shown)
VH: B12 VH with T79D, Q81K
VL: B12 VL with N30S
notes: as for B1
Consider B13, for which the binding result in test [1] is “binds”; in test [2] it was “no binding”. In addition, the Kd in test [3] worked out at 0.4 nM.

B14: AB1C25 (antibody, V domains shown)
VH: B12 VH with N57S, N59Y
VL: B12 VL with N30S, V111A, K112A
notes: as for B1
Regarding B14, the binding result in test [1] was “binds”; in test [2], “no binding”. Also, the Kd in test [3] stood at 1.4 nM.

The Kd is a measure of binding affinity in units of concentration.
